Laboratory results: US20080227698A1, “OLIGOPEPTIDES FOR TREATMENT OF OSTEOPOROSIS AND OTHER BONE DISEASES AND METHODS THEREOF” (Washington University, priority 2005, published 2008)

Columns and labels:
[1] = target: T1, other members of the LDLR family (LDLR, LRP, LRP1 B, VLDLR, apoER2) (Homo sapiens, UniProt Q07954); assay: ^125I-Mesd binding to cells expressing other members of the LDLR family; details: ^125I-Mesd 5 nM, 4 hours at 4° C.
T1 construct: expressed in transfected cells; host or cells: HEK293 (transient HA-LDLR); also endogenous receptors in MEF lines, MCF-7, U87 and SMC
T1 sequence (Q07954 20-4544): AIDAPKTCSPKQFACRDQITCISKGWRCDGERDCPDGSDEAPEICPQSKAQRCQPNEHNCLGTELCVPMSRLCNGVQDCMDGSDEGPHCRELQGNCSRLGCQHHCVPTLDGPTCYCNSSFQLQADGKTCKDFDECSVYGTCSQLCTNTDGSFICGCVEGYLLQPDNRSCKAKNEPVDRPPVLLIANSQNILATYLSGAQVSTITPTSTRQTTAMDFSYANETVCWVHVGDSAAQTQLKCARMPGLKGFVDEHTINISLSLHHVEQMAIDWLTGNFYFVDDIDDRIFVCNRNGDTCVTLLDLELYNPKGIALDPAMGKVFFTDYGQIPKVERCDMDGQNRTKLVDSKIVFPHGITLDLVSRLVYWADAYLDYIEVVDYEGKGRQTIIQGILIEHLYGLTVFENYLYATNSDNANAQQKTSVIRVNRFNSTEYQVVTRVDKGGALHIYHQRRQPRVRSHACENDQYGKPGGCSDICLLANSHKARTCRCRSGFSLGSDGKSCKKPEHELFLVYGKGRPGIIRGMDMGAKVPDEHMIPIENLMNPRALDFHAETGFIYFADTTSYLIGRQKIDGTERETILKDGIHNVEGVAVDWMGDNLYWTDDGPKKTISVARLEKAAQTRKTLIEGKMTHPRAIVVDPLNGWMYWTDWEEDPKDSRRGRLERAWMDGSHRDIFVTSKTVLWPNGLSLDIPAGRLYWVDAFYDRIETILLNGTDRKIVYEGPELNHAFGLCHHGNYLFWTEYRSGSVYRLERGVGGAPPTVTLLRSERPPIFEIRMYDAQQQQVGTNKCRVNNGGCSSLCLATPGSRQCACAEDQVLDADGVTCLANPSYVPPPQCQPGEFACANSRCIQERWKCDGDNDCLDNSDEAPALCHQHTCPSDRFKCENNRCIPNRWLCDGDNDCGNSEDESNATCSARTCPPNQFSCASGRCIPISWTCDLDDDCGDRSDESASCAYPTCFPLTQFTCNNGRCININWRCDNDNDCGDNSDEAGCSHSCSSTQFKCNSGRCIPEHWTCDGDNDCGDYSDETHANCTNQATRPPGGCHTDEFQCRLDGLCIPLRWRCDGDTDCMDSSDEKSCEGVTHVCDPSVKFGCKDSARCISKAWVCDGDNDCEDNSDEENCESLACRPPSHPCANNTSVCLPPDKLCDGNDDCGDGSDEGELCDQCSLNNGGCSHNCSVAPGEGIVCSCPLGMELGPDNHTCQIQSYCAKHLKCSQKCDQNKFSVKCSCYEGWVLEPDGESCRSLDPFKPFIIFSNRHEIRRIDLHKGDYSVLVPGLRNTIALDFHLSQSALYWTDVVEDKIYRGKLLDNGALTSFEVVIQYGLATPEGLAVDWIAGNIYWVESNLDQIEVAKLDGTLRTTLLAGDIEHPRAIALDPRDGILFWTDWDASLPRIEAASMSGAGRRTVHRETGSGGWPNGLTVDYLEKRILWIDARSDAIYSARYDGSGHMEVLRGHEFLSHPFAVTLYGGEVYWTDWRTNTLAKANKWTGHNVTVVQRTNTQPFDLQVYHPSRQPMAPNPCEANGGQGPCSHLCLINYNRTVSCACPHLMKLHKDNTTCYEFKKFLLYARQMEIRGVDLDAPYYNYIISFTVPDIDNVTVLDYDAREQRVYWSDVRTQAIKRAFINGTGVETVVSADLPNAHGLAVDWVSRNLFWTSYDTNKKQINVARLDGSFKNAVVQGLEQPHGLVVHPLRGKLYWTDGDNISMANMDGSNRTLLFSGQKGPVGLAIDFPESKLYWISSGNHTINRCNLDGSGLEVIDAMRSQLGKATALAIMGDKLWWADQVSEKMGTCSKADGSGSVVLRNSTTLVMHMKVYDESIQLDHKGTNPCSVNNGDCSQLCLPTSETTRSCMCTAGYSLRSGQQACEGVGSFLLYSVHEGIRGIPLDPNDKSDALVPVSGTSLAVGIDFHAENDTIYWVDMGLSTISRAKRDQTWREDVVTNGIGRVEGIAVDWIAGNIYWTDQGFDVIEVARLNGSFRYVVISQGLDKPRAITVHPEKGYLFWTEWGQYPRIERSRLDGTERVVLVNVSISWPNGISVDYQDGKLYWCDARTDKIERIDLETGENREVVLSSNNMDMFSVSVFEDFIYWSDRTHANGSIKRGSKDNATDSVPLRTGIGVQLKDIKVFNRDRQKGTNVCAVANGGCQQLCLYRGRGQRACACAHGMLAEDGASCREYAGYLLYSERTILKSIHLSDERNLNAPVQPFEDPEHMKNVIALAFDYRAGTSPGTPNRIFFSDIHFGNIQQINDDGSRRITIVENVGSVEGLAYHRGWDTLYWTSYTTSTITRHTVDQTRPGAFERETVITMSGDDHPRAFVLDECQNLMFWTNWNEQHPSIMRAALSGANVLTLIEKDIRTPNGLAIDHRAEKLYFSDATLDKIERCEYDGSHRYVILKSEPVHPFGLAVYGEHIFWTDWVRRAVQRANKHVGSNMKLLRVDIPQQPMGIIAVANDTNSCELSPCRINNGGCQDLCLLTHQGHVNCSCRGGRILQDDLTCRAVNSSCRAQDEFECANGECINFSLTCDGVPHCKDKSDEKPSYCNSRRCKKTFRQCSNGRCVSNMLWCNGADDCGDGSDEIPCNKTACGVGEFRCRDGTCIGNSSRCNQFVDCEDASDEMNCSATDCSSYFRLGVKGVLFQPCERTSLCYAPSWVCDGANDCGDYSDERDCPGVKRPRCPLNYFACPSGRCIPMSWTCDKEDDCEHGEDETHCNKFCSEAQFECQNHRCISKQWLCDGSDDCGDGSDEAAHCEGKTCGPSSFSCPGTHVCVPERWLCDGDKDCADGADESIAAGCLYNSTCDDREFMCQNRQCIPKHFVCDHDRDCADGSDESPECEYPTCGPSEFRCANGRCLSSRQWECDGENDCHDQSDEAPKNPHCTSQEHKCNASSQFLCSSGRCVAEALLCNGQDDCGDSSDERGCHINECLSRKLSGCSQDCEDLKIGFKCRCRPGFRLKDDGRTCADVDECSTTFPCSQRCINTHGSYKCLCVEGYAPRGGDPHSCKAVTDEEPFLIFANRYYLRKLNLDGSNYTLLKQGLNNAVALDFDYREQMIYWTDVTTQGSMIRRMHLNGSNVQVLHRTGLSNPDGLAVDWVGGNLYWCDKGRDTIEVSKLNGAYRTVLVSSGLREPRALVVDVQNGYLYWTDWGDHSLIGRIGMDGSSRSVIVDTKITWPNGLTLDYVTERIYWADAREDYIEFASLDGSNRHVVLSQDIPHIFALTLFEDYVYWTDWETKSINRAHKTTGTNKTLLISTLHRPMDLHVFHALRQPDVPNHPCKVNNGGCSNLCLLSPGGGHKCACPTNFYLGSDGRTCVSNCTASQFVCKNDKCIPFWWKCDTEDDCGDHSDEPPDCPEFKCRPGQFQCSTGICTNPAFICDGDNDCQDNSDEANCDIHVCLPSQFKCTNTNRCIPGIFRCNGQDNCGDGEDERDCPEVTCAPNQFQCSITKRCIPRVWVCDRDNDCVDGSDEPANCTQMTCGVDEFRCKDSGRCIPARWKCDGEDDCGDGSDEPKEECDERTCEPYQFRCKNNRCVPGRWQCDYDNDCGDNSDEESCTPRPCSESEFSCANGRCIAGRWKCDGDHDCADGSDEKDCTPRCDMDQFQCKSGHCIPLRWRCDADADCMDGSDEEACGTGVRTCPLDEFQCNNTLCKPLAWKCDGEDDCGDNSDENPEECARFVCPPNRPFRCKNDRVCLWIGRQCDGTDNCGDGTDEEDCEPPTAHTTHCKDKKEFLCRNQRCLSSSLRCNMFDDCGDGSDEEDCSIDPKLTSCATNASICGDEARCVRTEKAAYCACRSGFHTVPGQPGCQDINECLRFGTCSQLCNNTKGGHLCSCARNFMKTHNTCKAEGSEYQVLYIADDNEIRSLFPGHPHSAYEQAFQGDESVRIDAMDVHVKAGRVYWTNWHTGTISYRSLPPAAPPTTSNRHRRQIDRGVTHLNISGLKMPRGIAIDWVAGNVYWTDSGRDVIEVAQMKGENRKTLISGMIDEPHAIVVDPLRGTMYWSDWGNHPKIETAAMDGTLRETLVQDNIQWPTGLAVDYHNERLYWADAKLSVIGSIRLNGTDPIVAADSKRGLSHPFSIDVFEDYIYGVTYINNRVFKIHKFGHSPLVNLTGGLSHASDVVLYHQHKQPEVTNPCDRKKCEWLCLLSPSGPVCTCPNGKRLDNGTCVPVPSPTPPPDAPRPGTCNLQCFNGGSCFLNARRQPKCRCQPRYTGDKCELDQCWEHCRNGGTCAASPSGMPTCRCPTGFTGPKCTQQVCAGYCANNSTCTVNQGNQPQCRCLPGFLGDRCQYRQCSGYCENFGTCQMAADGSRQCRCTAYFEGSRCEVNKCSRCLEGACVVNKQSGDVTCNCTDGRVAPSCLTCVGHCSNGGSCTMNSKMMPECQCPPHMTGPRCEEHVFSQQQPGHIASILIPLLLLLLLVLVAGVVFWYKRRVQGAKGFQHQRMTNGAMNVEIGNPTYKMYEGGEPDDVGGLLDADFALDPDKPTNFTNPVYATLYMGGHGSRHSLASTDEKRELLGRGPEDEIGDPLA
Procedure: (§1) Cells (2×10^5) were seeded into 12-well dishes 1 day prior to assay. Ligand-binding buffer (minimal Eagle's medium containing 0.6% BSA with a different concentration of radioligand, 0.6 ml/well) was added to cell monolayers, in the absence or the presence of 500 nM unlabeled RAP or 500 nM unlabeled Mesd, followed with incubation for 0-4 hours at 4° C. Thereafter, overlying buffer containing unbound ligand was removed, and cell monolayers were washed and lysed in low-SDS lysis buffer (62.5 mM Tris-HCl pH 6.8, 0.2% SDS, 10% v/glycerol) and counted.
(§2) To determine whether Mesd binds to other members of the LDLR family, ^125I-Mesd binding analysis was performed with four groups of cells expressing different members of the LDLR family (FIG. 2). In the first experiment, HEK293 cells were transiently transfected with cDNAs for the LDLR, LRP5, LRP6 or empty pcDNA3 vector. […]

[2] = tested on: other members of the LDLR family (LDLR, LRP, LRP1 B, VLDLR, apoER2); assay: as above; design: species or system human; details: ^125I-Mesd 5 nM, 4 hours at 4° C., HEK293, CHO, MEF cells
Procedure: as §1, §2

B1: Mesd: recombinant wild-type mouse Mesd, polyhistidine tail at the N-terminus, lacks the signal peptide, expressed in E. coli (protein)
chain: ADTPGEATPPPRKKKDIRDYNDADMARLLEQWEKDDDIEEGDLPEHKRPSAPIDFSKLDPGKPESILKMTKKGKTLMMFVTVSGNPTEKETEEITSLWQGSLFNANYDVQRFIVGSDRAIFMLRDGSYAWEIKDFLVSQDRCAEVTLEGQMYPGKGGGSKEKNKTKPEKAKKKEGDRKPRASKEDNRAGSRREDL
modifications: left off: small tags and cut ends
notes: recombinant wild-type mouse Mesd, polyhistidine tail at the N-terminus, lacks the signal peptide, expressed in E. coli
Specific Mesd binding to U87 or SMC (express abundant LRP) [1]: minimal
^125I-Mesd binding to other members of the LDLR family [2]: not significantly
